Assay results as given in the nanobody polyreactivity screen of Harvey et al. (2022).

Assay: yeast display, Sf9 membrane polyspecificity reagent, FACS + sequencing; frameworks hold sequencing errors
How it was run: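 In a synthetic yeast display library (Saccharomyces cerevisiae BJ5465), nanobody expression was induced with galactose for 36–48 hours. FACS gates were set low and high (top ~1%) using anti-HA fluorescence for expression and streptavidin fluorescence for binding of the Sf9 membrane reagent. Each polyreactivity label is drawn from the gate of origin.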

Row | Sequence | polyreactivity (PSR sort gate)
1 | QVQLVESAGGLVQAGGSLRLSCDASGRILKYYDIGWYRQAPGKEWELVAAISVSGTSTYYADSVKGRFTISRDNAKNTVYLQMNSLKPEDTAVYYCATATGRYSFDYWGQGTQVTVSS | low polyreactivity
2 | QVQLVESAGGLVQAGGSLRLSCDASGRTFRYYVMGWYRQAPGNERELVAAISWSGCRTNYADSVKGRYTISGDNAKNTVYLQMNSLKPEDSAVYYCNAPRPALRRYDYWGQGTQVTVSS | high polyreactivity
3 | QVQLVESAGGLVQAGGSLRLSCPASGSIFQPYAMGWYRQAPGKERELVAAINGRGGSTHYADSVKGRFTISRDNAKNTVYLQMNSLKPEDTAVYYCAARYYRDYRWYTYAYDYWGQGTQVTVSS | high polyreactivity
4 | QVQLVESAGGLVQAGGSLRLSSAASGRIFLYYAMGWYRQAPGKEREFVAAITYIGGSTYYADSVKGRFTISRDNAKNTVYLQMNSLKPEDTAVYWGEGTQVTVSS | low polyreactivity
5 | QVQLVESAGGLVQAGGSLSISCAASGLTLTRNAMGWYRQAPGKERELVAAISGRGGSTYYADSVKGRFTISRDNAKNTVYLQMNSLKPEDTAVYYCAATVQYSPIYDYWGQGTQVTVSS | high polyreactivity
6 | QVQLVESAGGLVQAGGSLSLSCAASAFTYVCNRMGWNRQAPGKERELVAAITGSGSTNYADSVKGRFTISRDNAKNTVYLQMNSLKPEDTAVYYCATSDRQVKYDYWGQGTQVPVSS | low polyreactivity
7 | QVQLVESAGGLVQAGGSLSLSCAASGGMFTGYAMGWDRQAPGTERELVAAINTGGNTYYADSVKGRFTISRDNAKNTVYLQMNSLKPEDTAVYYCAAVYFPRSNTARRYGYWGQGTQVTVSS | high polyreactivity
8 | QVQLVESAGGLVQAGGSLSLSCAASGINFAWYVMGWYRQEPGKERELVAAITQSGGSTFYADSVKGRFTISRDNAKNTVYLQMNSLKPEDTAVYYCAAESRSTWIHSRDYWGQGTQVTVSS | low polyreactivity
9 | QVQLVESAGGLVQAGGSLSLSCAASGITFYRYVMGWYRQAPGKERELVAAISVSGGRTYYADSVKGRFTISRDNAKNTVYLQMNSLKPEDTAVYYCAARWAGSKSATVQYDYWGQGTQVTVSS | high polyreactivity
10 | QVQLVESAGGLVQAGGSLSLSCAASGTFYLYARGWYRQAPGKQRELVAAISGSGSTNYADSVKGRFTISRDNAKNTVYLQMNSLKPEDTAVYYCAAYQRYDSVTGARYEYDYWGQGTQVTVSS | low polyreactivity
11 | QVQLVESAGGLVQAGGTLRLSCAASGRIIYRYGMGWYRQAPGKERELVASITRGGSTYYADSVKGRFTISRDNAKNTVYLQMNSLKPEDTAVYYCATKSSAGYDYWGQGTQVTVSS | low polyreactivity
12 | QVQLVESAGGLVQAGGTLRLSCAASGSIFQFYAMGWYRHAPGKERELVAVITTSGVSTYYADSVKGRFTISRDNAKNTVYLQMNSLKPEDTGVYYCAARQWTSASYDYWGQGSQVTVSS | low polyreactivity
13 | QVQLVESAGGLVQAGVSLRLSCAASGLTFVQYAMGWYIQAPGKERELVAAISRSGGSTYYADSVKGRFTISRDNAKNTVYLQMNSMKPEDTAVYYCNAVIWLTSSEYWGQGTQVTVSS | high polyreactivity
14 | QVQLVESAGGLVQEGGSLRLSCAASGRTFYNAMGGYRQAPGKERELVAAISANGGSTTYADSVKGRFTISRDNAKNTVYLQMNSLKPEDTAVYYCNTYYWYSGSPYDYWGQGTQVTVSS | low polyreactivity
15 | QVQLVESAGGLVQEGGSLRLSCAASGSTFPYYAMGWYRQAPGKERELVAAISQNGGSTYYADSVKGRFTISRDNAMNTVYLQMNRLKPEDTAVYYCNADGVGGEYRLSGYAYWGQGTQVTVSS | low polyreactivity
16 | QVQLVESAGGVVQAGGSLRLSCAASGRIFGYNTMGWYRQAPGKERELVAAISGSGASTYYADSVKGRFTISRDNAKNTVYLQMNSLKAEDTAVYYCAAKAYYSTSPYHREHDSWGQGTQVTVSS | low polyreactivity
17 | QVQLVESAGVLVQAGGSLRFSCAPSGIIFPQYAMGWYRQAPGKARELVAAITYSGDGTYYADSVKGRFTISRDNAKYTVYLLMYSLKPDDTAVYYCAAFPRDPYKEYDYWGQGTQLTVSS | low polyreactivity
18 | QVQLVESAGYLVQAAASLRLSCAASGLIFVYYALGWYRQAPGKERELVAFITSVGSTYYGDSVKGRFTISRDNAKYTVYLQMNSVNPEDTAVYYCAAEWEFYGFDYWGQGTQVTVSA | low polyreactivity
19 | QVQLVESAVGLVQAGGSLRLSSAASGFTFLNYAMGSYRQAPGKVRELVAAITWSGGNTYYADSVMGRFTISRDNAKNTVYLQMNSLKPEDTAVYYCAADYRARGKFYWGQGTQVTVSS | high polyreactivity
20 | QVQLVESAVGLVQAGVSLRLSSAASGFIYYAYALGWYRQAPGKERELVAGISDSGASTYADSVKGRFTISRDNAKNTVYLQMNSLKPEDTAVYYCATTGYLSTKDYDEYGYWGQGTQVTVSS | low polyreactivity
21 | QVQLVESCGDLVQAGASLRLSCAASGRIFVYYAMGWYRQAPGKERELVALITSLGSTNYSDSVKGRFTISRDNGKNCVYLQMNSLKPEDTAVYYCAAEWEYYGFDYWGQGTQVTVSS | low polyreactivity
22 | QVQLVESCGGIVQAGGSLRLSCAASGRIFGENAMGWYRQEPGKEREFVAVISISDASTYYADSVKGRFTISRDNAKNTVFFQMNSLKPEDTAVYYCAAEGPDSYSMDYWGQGTQVTVSS | low polyreactivity

Row | Sequence | polyreactivity (PSR sort gate)
23 | QVQLVESCGGLLQAGGSLPLSCPASGSISSYYAMGWYRQAPGKERELVASITSGASTNYADSVKGRFTISRDNAKNTVYLQMNSLKPEDTAVYYCAAYVVTYYYGTGYYSYDYWGQGSQVTVSS | low polyreactivity
24 | QVQLVESCGGLVKAGGSLRLSCDASGSTFYNNAMGWYRQAPGKERELVAVITSGGGSTYYADSVKGRFTISRDNAKNTVYLQMNSLKPEDTAVYYCAAKRPFYKYLWLDVRGNYWGQGTQVTVSS | low polyreactivity
25 | QVQLVESCGGLVQAGCSLRLSCAASGRTFAYNAMGWYRQAPGKERELVADITSGGSTYYADSVKGRFTISRDNAKNTVYLQMNSLKPEDTAVYYCAAYPQFWYWDYNYWGQGTQVTVSS | high polyreactivity
26 | QVQLVESCGGLVQAGCSLRLSCAASGRTFVWYAMGWNRQAPGKERELVAAITLSGGSTYYADSVKGRFTISRDNAKNTVFLQMNSLIPEDTAVYYCAADGTYRPEDYDYWGQGTQVTVSS | low polyreactivity
27 | QVQLVESCGGLVQAGGSLRISCAASGLTIRYYAMGWYRHAPWKERELVAAISWSGGSTYYADSVKGRFTISRDNAKNTVYLLMNILKPEDTAVYYCNTVGRSSSLSVFLIGYGYWGQGTQVNVSS | high polyreactivity
28 | QVQLVESCGGLVQAGGSLRLICAASGRTFYHNAMGWYRQAPGKERELVATINSGGSTYAESVKGRFTISRDNAKNTVYFQMNSLKPEDTAVYYCAATFWSRSRFYYRYDYWGQGTQVTVSS | high polyreactivity
29 | QVQLVESCGGLVQAGGSLRLSCAASGFIFFANTMGWYRQAPGKERELVAAITSDGSTYYADSVKGRFTISRDNAKNTVYLQMNSLKPEDTAVYYCNAQSNYADLAYWNDYWGQGTKVTVSS | low polyreactivity
30 | QVQLVESCGGLVQAGGSLRLSCAASGFIFWCYTMGWYIQAPGKERELVAAITGSGGSTYYADSVKGRFTISRDNAKNTVNFQMNSLKPEDTAVYYCNAVSAYKWEYYYWGQGTLVTVSS | high polyreactivity
31 | QVQLVESCGGLVQAGGSLRLSCAASGGTFGPNAMGWYRQAPGKERELVARISTSGGSTTYYADSVKGRFTISRDNAKNTFYLHMNSLKPEDTAVYYCAADYKPYYRRRYDYWGQGTQVTVSS | low polyreactivity
32 | QVQLVESCGGLVQAGGSLRLSCAASGIIFEGNTLGWYRQAPGKEREFVAAISRNGGSTSYADSVKGRFTISRDNAKNTVYLQINSLKPEDTAVYYCAADVESFWGWRYEYWGQGTQVTVSS | low polyreactivity
33 | QVQLVESCGGLVQAGGSLRLSCAASGITFFGYDMGWYRQAPWKEWELVAAITSTGRTYYADSVKGRFTISRDNAKKTDYLQMNSLTPEDTAVYYCNAARYPRSWYYKLDYWGQGTQVTVSS | high polyreactivity
34 | QVQLVESCGGLVQAGGSLRLSCAASGLIFPVYAMGWYRQAPGKEREFVASIWRGGTTYYADSVKGRFTISRDNEKNTVYLQMNSLKPEDTAVYYCAARDYPRGLVFPFTKYDYWGQGTQVTVSS | high polyreactivity
35 | QVQLVESCGGLVQAGGSLRLSCAASGLTFYQNDMGWYRQAPGKERELVAAITLSGDITYYADSVKGRFTISRDNAKNTVYLQMNSLKPEDTAVYYCAADGYLLYVQHPNGRRYDYWGQGTQVTVSS | low polyreactivity
36 | QVQLVESCGGLVQAGGSLRLSCAASGRIFSYNPMGWYRQAPGKERELVATITSGDSTNYADSVKGRFTISRDNSKNSVYLQMNSLKQEDTAVYYCATDIYGLPVDYWGQGTQVSVSS | low polyreactivity
37 | QVQLVESCGGLVQAGGSLRLSCAASGRTFGRNAMGWYRQAPGEREMVAVISRGGSTYYADSVKGRFTISRDNAKNTVYLQMNSLKPEDTAVYYCNADTVYTRTAPYDYWGQGTQVTVSS | low polyreactivity
38 | QVQLVESCGGLVQAGGSLRLSCAASGRTFGYYAMGWYRQAPGKEREFVAAITAGGGSTYYADSVKGRFTISRDNAKNTVYLQMNSLKPEDTAVYYCAKRDYWGQGTQVTVSS | high polyreactivity
39 | QVQLVESCGGLVQAGGSLRLSCAASGRTFVTYAMGWYRQAPGKERELVAAISASGGSTYYADSVKGRFTISRDNAKNTVYFQMNSLKPEDTAVYYCAKTYFLATPYGYWGQGTQVTVSS | low polyreactivity
40 | QVQLVESCGGLVQAGGSLRLSCAASGSIFGYNDMGWYRQAPGKERELVATLTWGGGRTRYADSVKGRFTISRDNAKNTVYLQMNSLIPEDTAVDYCAADKRSYSYVRPPRNHEDYWGQGTQVTVSS | low polyreactivity
41 | QVQLVESCGGLVQAGGSLRLSCAASGSISFYAMGWYRQAPGQERELVAAITTSGGRTYYADSVKGRFTISRDNAKNTVYLQMNSLKPEDTAVYYCAQQGWYYSNRDGYRWYDYWGQGTQVTVSS | high polyreactivity
42 | QVQLVESCGGLVQAGGSLRLSCAASGSISYYYAMGWYRQAPGKERELVAAITRTGTTNYADSVKGRFTISRDNAKNTVYLQMNSLKPEDTAVYYCAKRSTGRLQSYNYWGQGNQVTVSS | low polyreactivity
43 | QVQLVESCGGLVQAGGSLRLSCAASGSTFLVNAMGWYRPAPGKERELVAASSRGGGSTYYADSVKGRFTISRDKAKNTVYLQMNSLKPEDTAVYYCNARKWTIYGAHYYWGQGTQVTVSS | high polyreactivity
